This test has as its target RSV postfusion F (Flys-GCN without the StrepII-tag) (respiratory syncytial virus (RSV)). Put plainly: cryo-EM structure.

Substance “RSV postfusion F (Flys-GCN without the StrepII-tag) (domain or fragment)” registered a stoichiometry N of 3.

By stoichiometry N is commonly meant the number of molecules, sites or subunits per partner or assembly.
